The numbers were not newly measured in patent US8232228B2 (priority 2002, dated 2012), which cites them from elsewhere.

B1: HarpinEa: Hypersensitive response elicitor protein from Erwinia amylovora, amino acid sequence SEQ. ID. No. 3 (protein)
chain: MSLNTSGLGASTMQISIGGAGGNNGLLGTSRQNAGLGGNSALGLGGGNQNDTVNQLAGLLTGMMMMMSMMGGGGLMGGGLGGGLGNGLGGSGGLGEGLSNALNDMLGGSLNTLGSKGGNNTTSTTNSPLDQALGINSTSQNDDSTSGTDSTSDSSDPMQQLLKMFSEIMQSLFGDGQDGTQGSSSGGKQPTEGEQNAYKKGVTDALSGLMGNGLSQLLGNGGLGGGQGGNAGTGLDGSSLGGKGLQNLSGPVDYQQLGNAVGTGIGMKAGIQALNDIGTHRHSSTRSFVNKGDRAMAKEIGQFMDQYPEVFGKPQYQKGPGQEVKTDDKSWAKALSKPDDDGMTPASMEQFNKAKGMIKRPMAGDTGNGNLQARGAGGSSLGIDAMMAGDAINNMALGKLGAA
modifications: Erwinia amylovora - harpinEa
B1: the “heat stable at 100° C.” value is given as “at least 10 minutes”.
